Target: M2e4x-PR8HA fusion protein (four tandem repeats of M2e fused to A/PR8 HA) on recombinant M2e4x-PR8HA influenza virus (influenza A/PR/8/34 (H1N1)) (UniProt P03452)
Assay: ELISA on serially coated inactivated virus

Q: Which results are given for “Influenza A virus M2 monoclonal antibody 14C2 (Abcam Inc., Cambridge, Mass.)”?
A: coating concentration at which reactivity was detected (ng/100 µl/well): 20; fold M2e reactivity relative to parental wild type A/PR8 virus: 250 fold

Reference: patent US20150273048A1
